Results reported in paper PMC3887258.

What was measured:
[1] = target: Human metapneumovirus matrix protein (M), untagged (human metapneumovirus, strain NL1-00); experiment: negative-stain electron microscopy, 2D class averages; free M in samples of 7.2 μM M incubated with 400 μM DOPC for 7 days at 37°C; 2% uranyl acetate
[2] = target: Human metapneumovirus matrix protein (M), untagged (human metapneumovirus, strain NL1-00); experiment: crystal structure; 2.8 Å, space group P3_(1); crystals from 20% PEG 6000, 100 mM Tris pH 8.0, 10 mM zinc chloride, 20°C; mixture of intact and proteolysed untagged M
[3] = target: Human metapneumovirus matrix protein (M), untagged (human metapneumovirus, strain NL1-00); experiment: SAXS; untagged M in 1 M NaCl buffer, or as 9:1 mixture with SUMO-3C-M in 1 M NDSB-201 buffer; 1 to 4 mg/ml; 20°C, BM29 ESRF; fitted with MD-based ensemble optimisation

Measured: stoichiometry N

Human metapneumovirus matrix protein (M), untagged (natural protein)
2: all assays above
